Measurements: publication PMC8294767 (2021)

Columns and labels:
galectin-3 [1] = molecular target: T1, galectin-3 (human (endogenous in A2780), UniProt P17931 1-250, biotinylated (printed: 'biotinylated galectin-3')); test: SPR; platelets exposed to Revacept
galectin-3 [2] = molecular target: T1, galectin-3; test: SPR
galectin-3 [3] = molecular target: T1, galectin-3; test: SPR; platelets exposed to anti-GPVI mAb
galectin-3 [4] = molecular target: T1, galectin-3; test: SPR; remark: listed apart in the source

T1 sequence (P17931 whole entry): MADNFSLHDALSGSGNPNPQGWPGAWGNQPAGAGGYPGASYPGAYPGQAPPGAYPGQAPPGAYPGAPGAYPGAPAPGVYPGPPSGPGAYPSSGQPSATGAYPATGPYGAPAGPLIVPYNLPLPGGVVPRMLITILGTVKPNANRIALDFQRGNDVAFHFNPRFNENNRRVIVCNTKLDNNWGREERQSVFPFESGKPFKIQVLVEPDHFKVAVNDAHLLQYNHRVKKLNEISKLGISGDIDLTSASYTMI

B1: platelet glycoprotein VI (GPVI) (receptor)
chain: QSGPLPKPSLQALPSSLVPLEKPVTLRCQGPPGVDLYRLEKLSSSRYQDQAVLFIPAMKRSLAGRYRCSYQNGSLWSLPSDQLELVATGVFAKPSLSAQPGPAVSSGGDVTLQCQTRYGFDQFALYKEGDPAPYKNPERWYRASFPIITVTAAHSGTYRCYSFSSRDPYLWSAPSDPLELVVTGTSVTPSRLPTEPPSPVAEFSEATAELTVSFTNEVFTTETSRSITASPKESDSPAGPARQYYTKGNLVRICLGAVILIILAGFLAEDWHSRRKRLRHRGRAVQRPLPPLPPLPLTRKSNGGQDGGRQDVHSRGLCS
B1 gave a Kd (galectin-3 [1]) of 16.2 µM, a Kd (galectin-3 [2]) of 48.6 µM and a Kd (galectin-3 [3]) of 21.4 µM. The Kd (galectin-3 [4]) was 42.2 µM.
